Laboratory results: US20210388087A1 (Chugai, published 2021)
Substitutions are numbered along the chain they refer to. Numbers in names are those of the source. Where no end group is shown, it is not given here.

B1: DADU01_3#002 (antibody, V domains shown)
VH: QVQLVESGGGLVQPGRSLRLSCAASGFTFSNAWMHWVRQAPGKGLEWVAQIKDKQNLYNAYYAESVKGRFTISRDDSKNSIYLQMNSLKTEDTAVYYCHYVHYASASTVLPAFGVDAWGQGTTVTVSS
VL: DIVMTQSPLSLPVTPGEPASISCRSSQSLVHSNRNTYLHWYQQKPGQAPRLLIYKVSNRFSGVPDRFSGSGSGTDFTLKISRVEAEDVGVYYCGQGTQVPYTFGQGTKLEIK
notes: Human IgG1; light chain GLS3000 (kappa); also called dBBDu124
B2: DADU01_3#018 (antibody, V domains shown)
VH: B1 VH with K54R, Q55A, L57S, E64P, A104S, S105A, V109L, A112S
VL: B1 VL
notes: Human IgG1; light chain GLS3000 (kappa); also called dBBDu123
B3: anti-human CD137 antibody described in WO2005/035584A1 (abbreviated as B) (antibody, V domains shown)
VH: QVQLQQWGAGLLKPSETLSLTCAVYGGSFSGYYWSWIRQSPEKGLEWIGEINHGGYVTYNPSLESRVTISVDTSKNQFSLKLSSVTAADTAVYYCARDYGPGNYDWYFDLWGRGTLVTVSS
VL: EIVLTQSPATLSLSPGERATLSCRASQSVSSYLAWYQQKPGQAPRLLIYDASNRATGIPARFSGSGSGTDFTLTISSLEPEDFAVYYCQQRSNWPPALTFGGGTKVEIK
notes: Control antibody; also called control anti-CD137 antibody
B4: H183/L072 with S93Y (Kabat) in VL dBBDu072L (antibody, name in Kabat numbering, V domains shown)
VH: B1 VH with Q55G, L57A, N59A, E64P
VL: B1 VL with R24Q, S25A, S28E, S32M, S61P, G94A, Q98Y, Y101F
notes: Single-mutation variant of H183L072
B5: H183/L072 with T97Y (Kabat) in VL dBBDu072L (antibody, name in Kabat numbering, V domains shown)
VH: B1 VH with Q55G, L57A, N59A, E64P
VL: B1 VL with R24Q, S25A, S28E, S32M, S61P, G94A, Q98S, Y101F, T102Y
notes: as for B4
B6: H183/L072 with V94Y (Kabat) in VL dBBDu072L (antibody, name in Kabat numbering, V domains shown)
VH: B1 VH with Q55G, L57A, N59A, E64P
VL: B1 VL with R24Q, S25A, S28E, S32M, S61P, G94A, Q98S, V99Y, Y101F
notes: as for B4
B7: dBBDu186/L098 (antibody, V domains shown)
VH: B1 VH with K54R, Q55S, L57Q, N59A, A60T, E64P, S105Q
VL: DIVMTQSPLSLPVTPGEPASISCAASEELVHINRYIFLHWYQQKPGQAPRLLIYKVSNRFIGVPDRFSGSGSGTDFTLKISRVEAEDVGVYYCAQGSQVPFTFGQGTKLEIK
notes: IgG format; constant regions not specified
B8: dBBDu193/L132 (antibody, V domains shown)
VH: B1 VH with K54R, Q55S, L57Q, N59A, A60T, E64P, A104S, S105A, V109L, A112S
VL: B7 VL with A24Q, A25T, Y35F, I61S, S97T, Q98S
notes: IgG format; constant regions not specified; also called dBBDu_193 dBBDu.L132
B9: dBBDu186/L100 (antibody, V domains shown)
VH: B1 VH with K54R, Q55S, L57Q, N59A, A60T, E64P, S105Q
VL: B7 VL with A24S, S57Y, I61M, A94G, Q98S
notes: as for B7
B10: dBBDu167/L094 (antibody, V domains shown)
VH: B1 VH with Q55G, N59A, E64P, S107G, T108G, V109G, A112G
VL: B7 VL with A24Y, V30L, Y35H, F37Y, S57Y, I61N, Q98S
notes: IgG format; constant regions not specified; also called dBBDu_167 dBBDu.L094
B11: dBBDu193/L127 (antibody, V domains shown)
VH: B1 VH with K54R, Q55S, L57Q, N59A, A60T, E64P, A104S, S105A, V109L, A112S
VL: B7 VL with A24R, V30L, Y35H, S57Y, I61T, S97T, Q98S
notes: IgG format; constant regions not specified; also called dBBDu_193 dBBDu.L127
B12: dBBDu186/L106 (antibody, V domains shown)
VH: B1 VH with K54R, Q55S, L57Q, N59A, A60T, E64P, S105Q
VL: B7 VL with A24S, A25T, V30L, Y35F, S57A, I61M
notes: as for B7
B13: dBBDu186/L108 (antibody, V domains shown)
VH: B1 VH with K54R, Q55S, L57Q, N59A, A60T, E64P, S105Q
VL: B7 VL with A24R, A25T, V30L, Y35F, I36T, I61M, Q98A
notes: as for B7
B14: dBBDu189/L126 (antibody, V domains shown)
VH: QVQLVESGGGLVQPGRSLRLSCAASGFTFSNAWMHWVRQAPGKGLEWIAQIKDRSNQYATYYAPSVKGRFTISRDDSKNSIYLQMNSLKTEDTAVYYCHYVHYAQASSLLPSFGVDAWGQGTTVTVSS
VL: B7 VL with A24R, A25T, V30L, S57Q, I61S, Q98A
notes: as for B7
B15: dBBDu189/L119 (antibody, V domains shown)
VH: B14 VH
VL: B7 VL with A24T, E27Q, Y35F
notes: as for B7

Biological target: T1, cyno CD137-Fc (cynomolgus monkey; human, limits assumed, biotin-labeled)
T1 construct: whole entry 92 named; also called biotin-labeled cynomolgus monkey CD137 fused to human IgG1 Fc fragment; not shown: human IgG1 Fc fragment
T1 chain: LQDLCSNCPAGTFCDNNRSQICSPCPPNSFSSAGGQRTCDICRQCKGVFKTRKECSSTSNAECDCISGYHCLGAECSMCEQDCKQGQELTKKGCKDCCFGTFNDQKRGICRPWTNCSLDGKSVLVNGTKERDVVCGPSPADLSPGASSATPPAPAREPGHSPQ
Assay: bead ELISA, IgG on biotinylated antigen, luminescence;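 further: biotinylated antigen captured on streptavidin magnetic beads, then incubated with purified IgG at 50 ng/µL for 1 h at room temperature before detection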

| RLU [RLU] | S/N ratio (cyno CD137-Fc/Fc) | Binder |
| --- | --- | --- |
| 10800 | 5.6 | B1 |
| 6200 | 3.27 | B2 |

biological target: T2, human CD137-Fc (human, biotin-labeled); assay: as above
T2 construct: if 90 already holds the Fc, drop the second piece; also called biotin-labeled human CD137 fused to human IgG1 Fc fragment; biotin-human CD137-Fc; not shown: human IgG1 Fc fragment

| RLU [RLU] | S/N ratio (human CD137-Fc/Fc) | Binder |
| --- | --- | --- |
| 39100 | 20.3 | B1 |
| 32800 | 17.3 | B2 |

Biological target: T3, Biotin-labeled CD3 epsilon peptide antigen (human, also: biotin-labeled, site not given here)
T3 construct: also called CD3 peptide
T3 peptide: QDGNEEMGGITQTPY
Assay: bead ELISA, IgG on biotinylated CD3 epsilon peptide, luminescence

| RLU [RLU] | S/N ratio (CD3 peptide/non coating) | Binder |
| --- | --- | --- |
| 174000 | 156 | B1 |
| 182000 | 149 | B2 |

biological target: T2, human CD137-Fc; assay: bead ELISA on biotin-human CD137-Fc with 62.5 pmol free CD3e peptide as competitor

| ELISA signal | Binder |
| --- | --- |
| 183000 | B3 |
| 9970 | B1 |
| 9020 | B2 |

biological target: T2, human CD137-Fc; assay: bead ELISA on biotin-human CD137-Fc with 62.5 pmol free human Fc (control competitor)

| ELISA signal | Binder |
| --- | --- |
| 184000 | B3 |
| 155000 | B1 |
| 117000 | B2 |

biological target: T2, human CD137-Fc; assay: bead ELISA on biotin-human CD137-Fc, free CD3e peptide vs free Fc

| Signal decrease [%] | Binder |
| --- | --- |
| 0.94 | B3 |
| 93.6 | B1 |
| 92.3 | B2 |

Biological target: T4, Human CD3eg linker (human)
T4 construct: Single chain: CD3 epsilon and gamma subunits joined by a 29-mer linker, Flag-tag at the C-terminus; also called recombinant human CD3
T4 chain: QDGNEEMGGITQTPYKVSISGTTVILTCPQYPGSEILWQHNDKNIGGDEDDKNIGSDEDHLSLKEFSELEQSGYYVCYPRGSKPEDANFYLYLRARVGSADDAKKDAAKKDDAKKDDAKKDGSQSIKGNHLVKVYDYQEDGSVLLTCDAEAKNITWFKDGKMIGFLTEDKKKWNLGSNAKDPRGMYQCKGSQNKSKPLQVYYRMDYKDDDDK
Assay: affinity relative to template H183/L072, single-mutation scan

| fold change of affinity for CD3 [fold] | Binder |
| --- | --- |
| 0.7 | B4 |
| 0.2 | B5 |
| 0.2 | B6 |

biological target: T5, biotin-labeled human CD137 fused to human IgG1 Fc fragment (human, biotin-labeled); assay: competitive ELISA on biotin-human CD137-Fc; competitor free CD3e 62.5 pmol
T5 construct: also called human CD137-Fc; biotin-human CD137-Fc; not shown: human IgG1 Fc fragment

| ELISA signal | Binder |
| --- | --- |
| 15900 | B7 |
| 10400 | B8 |
| 88900 | B9 |
| 4370 | B10 |
| 2470 | B11 |
| 3090 | B12 |
| 50800 | B13 |
| 9750 | B14 |
| 20400 | B15 |

biological target: T5, biotin-labeled human CD137 fused to …; assay: competitive ELISA on biotin-human CD137-Fc; free Fc 62.5 pmol (control)

| ELISA signal | Binder |
| --- | --- |
| 115000 | B7 |
| 116000 | B8 |
| 102000 | B9 |
| 141000 | B10 |
| 6080 | B11 |
| 9860 | B12 |
| 83600 | B13 |
| 75100 | B14 |
| 88100 | B15 |

Biological target: T6, cyno CD137 (cynomolgus monkey, UniProt Q07011 24-186 (human entry), limits assumed)
T6 construct: also called cynomolgus monkey CD137
T6 chain: T1 chain
Assay: SPR Biacore T200, IgG captured on protein A, 25 C;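 further: antigens diluted in ACES running buffer at pH 7.4 were flowed over antibodies held on a CM3 chip bearing amine-coupled protein A, with buffer alone serving as blank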

| Kd [µM] | koff [s⁻¹] | kon [M⁻¹ s⁻¹] | Binder |
| --- | --- | --- | --- |
| 134 | 0.00119 | – | B7 |
| 757 | 0.0061 | – | B8 |
| 70.4 | 0.00208 | – | B9 |
| 6.92 | 0.0748 | 10800 | B10 |
| 28.1 | 0.00316 | 112 | B11 |
| 61.3 | 0.00126 | – | B12 |
| 16.1 | 0.00361 | 225 | B13 |
| 3.06 | 0.00247 | 807 | B14 |
| 35.7 | 0.00122 | – | B15 |

biological target: human CD137 (human, UniProt Q07011 24-186); assay: SPR Biacore T200, IgG captured on protein A, 25 C;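 further: antigens diluted in ACES running buffer at pH 7.4 were flowed over antibodies held on a CM3 chip bearing amine-coupled protein A, with buffer alone serving as blank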

| Kd [µM] | koff [s⁻¹] | kon [M⁻¹ s⁻¹] | Binder |
| --- | --- | --- | --- |
| 2.31 | 0.000534 | 231 | B7 |
| 4.48 | 0.00211 | 471 | B8 |
| 1.91 | 0.000746 | 391 | B9 |
| 8.43 | 0.0102 | 1210 | B10 |
| 3.3 | 0.00145 | 440 | B11 |
| 3.44 | 0.000447 | 130 | B12 |
| 2.41 | 0.00081 | 335 | B13 |
| 0.513 | 0.000688 | 1340 | B14 |
| 2.71 | 0.000402 | 148 | B15 |

biological target: human CD3 ed (human, UniProt P07766 23-126; P04234 22-105, limits assumed); assay: SPR Biacore T200, IgG captured on protein A, 25 C;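 further: antigens diluted in ACES running buffer at pH 7.4 were flowed over antibodies held on a CM3 chip bearing amine-coupled protein A, with buffer alone serving as blank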

| Kd [µM] | koff [s⁻¹] | kon [M⁻¹ s⁻¹] | Binder |
| --- | --- | --- | --- |
| 1.88 | 0.0209 | 11100 | B7 |
| 2.03 | 0.0201 | 9890 | B8 |
| 3.36 | 0.0546 | 16200 | B9 |
| 0.349 | 0.021 | 60200 | B10 |
| 1.51 | 0.0191 | 12600 | B11 |
| 3.09 | 0.0318 | 10300 | B12 |
| 3.01 | 0.0408 | 13600 | B13 |
| 2.57 | 0.0281 | 10900 | B14 |
| 2.06 | 0.0258 | 12500 | B15 |

biological target: T5, biotin-labeled human CD137 fused to …; assay: competitive ELISA on biotin-human CD137-Fc; free CD3e vs free Fc

| Signal decrease [%] | Binder |
| --- | --- |
| 86.2 | B7 |
| 91 | B8 |
| 13 | B9 |
| 96.9 | B10 |
| 59.4 | B11 |
| 68.7 | B12 |
| 39.2 | B13 |
| 87 | B14 |
| 76.9 | B15 |

biological target: T2, human CD137-Fc; assay: bead ELISA on biotin-human CD137-Fc, 125 vs 0 pmol free CD3e peptide;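 further: target captured on streptavidin-coated magnetic beads, signal read as fluorescence 2 min after adding APS-5 substrate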

| Signal decrease [%] | Binder |
| --- | --- |
| 1.26 | B3 |
| 68 | B1 |
| 33 | B2 |

biological target: T2, human CD137-Fc; assay: bead ELISA on biotin-human CD137-Fc, 0 pmol free CD3e peptide

| ELISA signal | Binder |
| --- | --- |
| 99400 | B3 |
| 6620 | B1 |
| 2750 | B2 |

biological target: T2, human CD137-Fc; assay: bead ELISA on biotin-human CD137-Fc with 125 pmol/well free CD3e peptide as competitor;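 further: Streptavidin-coated magnetic beads in blocking buffer as the capture surface, well signal read as fluorescence 2 min after adding APS-5 substrate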

| ELISA signal | Binder |
| --- | --- |
| 98100 | B3 |
| 2120 | B1 |
| 1840 | B2 |
